HiLyteFluor‑488 = fluorophore label at the N-terminus; donor fluorophore = not defined here; K(quencher) = not defined here
Experiments:
Type in all cases: biochemical
[1] = biological target: T1, rPro-hCD ADAMTS-7 (SEQ ID NO: 1) (Homo sapiens, UniProt Q9UKP4, A119V/A123T/A127T/A171V/A193G/A200T/A28V/A36P/A42G/A66V/A78S/A97T/D77A/DEL186-188/DEL228-233/E133D/E190K/E213K/E83Q/G114S/G115N/G117S/G196D/G27H/H100Y/H124S/H234Q/K153R/L143F/L192S/L20I/P189H/P201S/P29L/P33S/P79S/Q99P/R118N/R122Q/R174Q/R195Q/R215Q/R218H/R35L/R75A/R76Q/R87Q/R92L/S170E/S199R/S202G/S214H/T110I/T125V/V182M/V208G/V74A/W225K/Y209S); test: FRET peptide substrate cleavage by rPro-hCD (SEQ ID NO: 1); details: for activity profile of modified S1 substrates (in words): S1 peptide with additional hydrophilic moiety, data not shown; for kcat, Enzyme SEQ ID NO: 1: rPro-hCD: approx. 100 nM enzyme, 10 μM peptide substrate; for cleavage activity with ADAMTS-7 human catalytic domain constructs (in words): rPro-hCD (SEQ ID NO: 1) and FM2 (SEQ ID NO: 2) constructs
T1 construct: rat ADAMTS-7 signal peptide + prodomain (rat 1-217), fusion partner (N); 2xStrep tag (C); 6xHis tag (C); made in house; host or cells: Expi293 cells
T1 sequence (Q9UKP4 with tags, fused parts or gaps with the stated changes): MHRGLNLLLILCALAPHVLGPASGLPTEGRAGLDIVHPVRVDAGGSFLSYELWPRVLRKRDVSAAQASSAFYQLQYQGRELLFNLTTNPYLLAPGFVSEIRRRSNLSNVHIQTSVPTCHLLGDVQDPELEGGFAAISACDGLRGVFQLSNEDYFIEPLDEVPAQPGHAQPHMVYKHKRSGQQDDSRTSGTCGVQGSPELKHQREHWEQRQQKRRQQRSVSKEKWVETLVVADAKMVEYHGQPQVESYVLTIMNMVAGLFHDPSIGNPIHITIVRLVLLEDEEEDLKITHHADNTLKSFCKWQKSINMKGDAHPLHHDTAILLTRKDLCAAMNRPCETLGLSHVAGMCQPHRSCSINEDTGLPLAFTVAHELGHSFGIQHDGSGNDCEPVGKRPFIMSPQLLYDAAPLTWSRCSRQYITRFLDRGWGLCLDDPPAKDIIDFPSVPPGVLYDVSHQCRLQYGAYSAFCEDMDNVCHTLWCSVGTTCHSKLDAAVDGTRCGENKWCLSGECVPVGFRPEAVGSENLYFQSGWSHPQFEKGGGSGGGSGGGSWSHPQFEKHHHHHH
Experimental: (§1) Purified recombinant ADAMTS-7 (as of SEQ ID NO: 1 or SEQ ID NO: 2) and purified recombinant rADAMTS-7 (rat ADAMTS-7 residues 1-575 with a carboxyl terminal Flag, SEQ ID NO: 3) were used to identify substrates from the TSP1 and COMP candidate peptides. ADAMTS-7 was diluted in reaction buffer (20 mM HEPES pH 8.0, 150 mM NaCl, 5 mM CaCl2, 0.004% Brij, 10 μM ZnCl2) for a concentration of approximately 100 nM and pre-incubated for 2 hr at room temperature prior to reaction start with 10 μM candidate peptide substrates. There were some differences between optimized buffer data and reported 2 mM Zn^2+ buffer data (Liu 2006 FASEB J); for example, the published amount of Zinc in assay buffer caused the purified ADAMTS-7 proteins to precipitate. Candidate FRET substrates based on SEQ ID NO: 4 to 10 were generated through custom synthesis by Anaspec—AnaSpec, EGT (34801 Campus Drive, Fremont, Calif. 94555, USA); as explained by the manufacturer; AnaSpec, EGT Group's pH insensitive HiLyte™ Fluor dyes are a series of fluorescent labeling dyes with fluorescence emissions that span the full visible and near infrared spectrum. HiLyte™ Fluor dyes and AnaSpec's proprietary quenchers QXL™ have been used as fluorophore and quencher pairs for fluorescence resonance energy transfer (FRET) in our Examples in the reaction buffer.
(§2) The TSP substrate sequences indicate the cleavage site (underlined) between glutamate and leucine as determined by mass spectrometry. COMP substrate cleavage products were below the detection limit of the mass spectrometer.

[2] = biological target: T2, rPro-hCD-FM2 ADAMTS-7 (SEQ ID NO: 2) (Homo sapiens, UniProt Q9UKP4, A119V/A123T/A127T/A171V/A193G/A200T/A28V/A36P/A42G/A66V/A78S/A97T/D77A/DEL186-188/DEL228-233/E133D/E190K/E213K/E83Q/G114S/G115N/G117S/G196D/G27H/H100Y/H124S/H234Q/K153R/L143F/L192S/L20I/P189H/P201S/P29L/P33S/P79S/Q235K/Q99P/R118N/R122Q/R174Q/R195Q/R215Q/R218H/R35L/R75A/R76Q/R87Q/R92L/S170E/S199R/S202G/S214H/T110I/T125V/V182M/V208G/V74A/W225K/Y209S); test: FRET peptide substrate cleavage by rPro-hCD-FM2 (SEQ ID NO: 2); details: approx. 100 nM enzyme, 10 μM peptide substrate
T2 construct: rat ADAMTS-7 signal peptide + prodomain (rat 1-217, Q216K), fusion partner (N); 2xStrep tag (C); 6xHis tag (C); made in house; host or cells: Expi293 cells
T2 sequence (Q9UKP4 with tags, fused parts or gaps with the stated changes): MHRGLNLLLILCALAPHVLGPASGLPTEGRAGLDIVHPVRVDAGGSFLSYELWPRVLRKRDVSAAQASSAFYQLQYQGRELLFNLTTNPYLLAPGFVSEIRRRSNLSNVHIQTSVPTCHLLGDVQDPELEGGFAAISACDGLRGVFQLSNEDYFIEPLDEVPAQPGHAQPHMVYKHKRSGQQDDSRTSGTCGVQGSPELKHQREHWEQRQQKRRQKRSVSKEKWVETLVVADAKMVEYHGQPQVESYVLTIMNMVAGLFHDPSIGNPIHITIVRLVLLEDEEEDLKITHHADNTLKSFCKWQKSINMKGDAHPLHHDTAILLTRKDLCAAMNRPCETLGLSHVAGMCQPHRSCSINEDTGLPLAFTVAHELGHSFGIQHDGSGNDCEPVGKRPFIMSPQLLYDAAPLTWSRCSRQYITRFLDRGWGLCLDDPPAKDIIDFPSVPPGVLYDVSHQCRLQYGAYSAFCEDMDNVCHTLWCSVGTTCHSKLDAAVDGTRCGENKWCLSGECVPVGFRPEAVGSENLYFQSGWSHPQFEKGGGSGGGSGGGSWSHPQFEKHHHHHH
Experimental: as §1, §2

[3] = biological target: T3, rADAMTS7 (1-575) (Rattus norvegicus, UniProt Q1EHB3); test: FRET peptide substrate cleavage by rADAMTS7 (1-575) (SEQ ID NO: 3); details: approx. 100 nM enzyme, 10 μM peptide substrate
T3 construct: Flag (C); made in house; host or cells: Expi293 cells
T3 sequence (Q1EHB3 with tags, fused parts or gaps): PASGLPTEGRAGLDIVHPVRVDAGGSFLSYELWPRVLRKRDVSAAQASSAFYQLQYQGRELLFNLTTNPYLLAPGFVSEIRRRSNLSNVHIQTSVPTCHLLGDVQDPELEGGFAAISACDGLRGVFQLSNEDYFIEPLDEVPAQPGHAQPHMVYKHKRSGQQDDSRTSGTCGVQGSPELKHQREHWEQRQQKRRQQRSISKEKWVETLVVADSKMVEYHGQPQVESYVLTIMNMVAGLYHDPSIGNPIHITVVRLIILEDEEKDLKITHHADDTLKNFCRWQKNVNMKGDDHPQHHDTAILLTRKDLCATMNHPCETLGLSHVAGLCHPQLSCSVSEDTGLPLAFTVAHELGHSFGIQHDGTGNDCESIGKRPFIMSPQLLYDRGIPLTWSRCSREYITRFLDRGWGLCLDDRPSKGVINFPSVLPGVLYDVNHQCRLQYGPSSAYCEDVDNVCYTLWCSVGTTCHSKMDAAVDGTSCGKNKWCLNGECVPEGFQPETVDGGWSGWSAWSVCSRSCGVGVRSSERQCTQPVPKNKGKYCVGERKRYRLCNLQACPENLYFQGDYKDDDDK
Experimental: as §1, §2

activity profile of modified S1 substrates (in words) [1]	Substance	kcat, Enzyme SEQ ID NO: 2: rPro-hCD-FM2 [2]	kcat, Enzyme SEQ ID NO: 1: rPro-hCD [1]	cleavage activity with ADAMTS-7 human catalytic domain constructs (in words) [1]	kcat, Enzyme SEQ ID NO: 3: rADAMTS7 (1-575) [3]
not significantly affected	(HiLyteFluor-488)-DELSSMVLELRGLRT-K(QXL520)-E-NH2 ({HiLyteFluor‑488}-DELSSMVLELRGLRTK(QXL520)E-NH2) [SEQ ID NO: 11, S1 peptide substrate with additional carboxyl glutamic acid after the quencher]				
	(HiLyteFluor-488)-DELSSMVLELRGLRT-K(QXL520)-NH2 ({HiLyteFluor‑488}-DELSSMVLELRGLRTK(QXL520)-NH2) [TSP1-1, FRET peptide substrate for ADAMTS-7/12, TSP1 amino acids 275-289]	0.0004 s⁻¹	0.00035 s⁻¹	greatest specificity	0.000167 s⁻¹
not significantly affected	(HiLyteFluor-488)-DELSSMVLELRGLRT-K(QXL520)-K-NH2 ({HiLyteFluor‑488}-DELSSMVLELRGLRTK(QXL520)K-NH2) [SEQ ID NO: 12, S1 peptide substrate with additional lysine after the quencher]				
	(HiLyteFluor-488)-SSMVLELRGLRTIVT-K(QXL520)-NH2 ({HiLyteFluor‑488}-SSMVLELRGLRTIVTK(QXL520)-NH2) [TSP1-2, FRET peptide substrate, TSP1 amino acids 278-292]	4.83e-05 s⁻¹	5.33e-05 s⁻¹	cleaved	0.000128 s⁻¹
	(Donor) GMQQSVRTGLPS (K-Quencher) ({donor fluorophore}-GMQQSVRTGLPS-{K(quencher)}; reading uncertain; also: donor fluorophore and quencher not given here, printed as (Donor) GMQQSVRTGLPS (K-Quencher)) [COMP1, FRET candidate peptide, COMP amino acids 73-84]	1.27e-05 s⁻¹	1.22e-05 s⁻¹	No activity	8.17e-06 s⁻¹
	(HiLyteFluor-488)-EENKELANELRRPPL-K (QXL520)-NH2 ({HiLyteFluor‑488}-EENKELANELRRPPLK(QXL520)-NH2) [TSP1-4, FRET candidate peptide, TSP1 amino acids 303-317]	3.5e-05 s⁻¹	3.33e-05 s⁻¹	No significant activity	4.33e-05 s⁻¹
	(HiLyteFluor-488)-SSMVLELRGLRT-K(QXL520)-NH2 ({HiLyteFluor‑488}-SSMVLELRGLRTK(QXL520)-NH2) [TSP1-5, FRET peptide substrate, TSP1 amino acids 278-289]	3.5e-05 s⁻¹	3.33e-05 s⁻¹	Activity was observed	4.17e-05 s⁻¹
not significantly affected	(HiLyteFluor-488)-DELSSMVLELRGLRT-K(QXL520)-OH ({HiLyteFluor‑488}-DELSSMVLELRGLRTK(QXL520)-OH) [SEQ ID NO: 13, S1 peptide substrate ending in -OH]				
	(HiLyteFluor-488)-KVTEENKELANELRR-K (QXL520)-NH2 ({HiLyteFluor‑488}-KVTEENKELANELRRK(QXL520)-NH2) [TSP1-3, FRET candidate peptide, TSP1 amino acids 300-314]	2e-05 s⁻¹	2e-05 s⁻¹	No significant activity	2.33e-05 s⁻¹
